Test results taken from paper PMC4016182, “First Functional and Mutational Analysis of Group 3 N-Acetylneuraminate Lyases from Lactobacillus antri and Lactobacillus sakei 23K” (PLoS ONE, 2014).

Assays:
[1] = target: N-acetylneuraminate lyase from Lactobacillus antri (Lactobacillus antri) (UniProt C8P490); assay: SEC; gel filtration on Superdex200 10/300 GL in 50 mM phosphate buffer pH 7.0 with 0.15 M NaCl; native mass compared with the subunit mass by HPLC/MS/ESI and SDS-PAGE
LaNAL = target: T1, LaNAL (Limosilactobacillus antri, UniProt C8P490); assay: NAD+-coupled ManNAc dehydrogenase assay, […] nm; type: biochemical
T1 construct: gene FC31_GL000711; N-terminal His-tag (pET-28a), E. coli Rosetta 2; nanA gene printed as 828 bp; homotetramer 140 kDa; EC 4.1.3.3
T1 sequence (C8P490 1-305): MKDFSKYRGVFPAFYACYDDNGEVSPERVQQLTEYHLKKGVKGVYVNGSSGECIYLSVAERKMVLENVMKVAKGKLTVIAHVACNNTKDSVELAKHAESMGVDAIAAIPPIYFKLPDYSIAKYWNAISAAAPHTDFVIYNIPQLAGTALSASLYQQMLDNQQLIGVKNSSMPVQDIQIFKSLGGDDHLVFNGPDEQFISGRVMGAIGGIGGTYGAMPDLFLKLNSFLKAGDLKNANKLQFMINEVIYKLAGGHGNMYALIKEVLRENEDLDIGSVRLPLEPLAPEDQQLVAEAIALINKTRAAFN

LsNAL [2] = target: T2, LsNAL (Latilactobacillus sakei, UniProt Q38V37); assay: thermal shift, SYPRO Orange; type: binding; settings: 5 mM sodium pyruvate; several pHs (4-9)
T2 construct: gene nanA; N-terminal His-tag (pET-28a), E. coli Rosetta 2; nanA gene 918 bp; homotetramer 140 kDa; EC 4.1.3.3
T2 sequence (Q38V37 1-305): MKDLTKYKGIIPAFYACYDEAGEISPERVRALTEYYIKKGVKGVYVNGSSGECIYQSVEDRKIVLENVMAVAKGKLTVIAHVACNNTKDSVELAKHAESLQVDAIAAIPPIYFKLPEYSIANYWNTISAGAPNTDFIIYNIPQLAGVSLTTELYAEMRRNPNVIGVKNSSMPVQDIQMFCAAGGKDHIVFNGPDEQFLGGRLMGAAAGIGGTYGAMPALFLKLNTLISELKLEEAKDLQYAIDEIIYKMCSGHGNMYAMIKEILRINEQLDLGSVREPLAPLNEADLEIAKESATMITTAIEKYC

LsNAL [3] = target: T2, LsNAL; assay: NAD+-coupled ManNAc dehydrogenase assay, […] nm; type: biochemical
[4] = target: N-acetylneuraminate lyase from Lactobacillus sakei 23K (Lactobacillus sakei 23K) (UniProt Q38V37); assay: SEC; gel filtration on Superdex200 10/300 GL in 50 mM phosphate buffer pH 7.0 with 0.15 M NaCl; native mass compared with the subunit mass by HPLC/MS/ESI and SDS-PAGE
[5] = substrate: CC(=O)C(=O)O; assay: Neu5Ac synthesis, HPLC-ELSD; type: biochemical, Limosilactobacillus antri; settings: co-substrate ManNAc, 20 mM phosphate pH 7.0, 37 C
Source text: Neu5Ac synthesis, HPLC-ELSD on LaNAL

[6] = substrate: CC(=O)C(=O)O; assay: Neu5Ac synthesis, HPLC-ELSD; type: biochemical, Latilactobacillus sakei; settings: co-substrate ManNAc, 20 mM phosphate pH 7.0, 37 C
Source text: Neu5Ac synthesis, HPLC-ELSD on LsNAL

For “N-acetylneuraminate lyase from Lactobacillus antri (from UniProt C8P490 1-305) (enzyme)”, the stoichiometry N [1] was 4.

In the case of `CC(=O)C(=O)O` [pyruvate], the Ki (LaNAL) is reported as 160 µM, the Tm (LsNAL [2]) is reported as “protective effect was more evident at basic pHs” and the Ki (LsNAL [3]) is reported as 400 µM.

Molecule “N-acetylneuraminate lyase from Lactobacillus sakei 23K (from UniProt Q38V37 1-305) (enzyme)” has a stoichiometry N [4] of 4.

B1: LaNAL (Limosilactobacillus antri DSM 16041; G210S/Y213G) (protein)
chain: MKDFSKYRGVFPAFYACYDDNGEVSPERVQQLTEYHLKKGVKGVYVNGSSGECIYLSVAERKMVLENVMKVAKGKLTVIAHVACNNTKDSVELAKHAESMGVDAIAAIPPIYFKLPDYSIAKYWNAISAAAPHTDFVIYNIPQLAGTALSASLYQQMLDNQQLIGVKNSSMPVQDIQIFKSLGGDDHLVFNGPDEQFISGRVMGAIGGISGTGGAMPDLFLKLNSFLKAGDLKNANKLQFMINEVIYKLAGGHGNMYALIKEVLRENEDLDIGSVRLPLEPLAPEDQQLVAEAIALINKTRAAFN
notes: N-terminal His-tag (pET-28a), E. coli Rosetta 2; nanA gene printed as 828 bp; homotetramer 140 kDa; EC 4.1.3.3
B1 gave a Km [5] of 4300 ± 2000 µM, a kcat [5] of 3 ± 0.3 s⁻¹ and a kcat/Km [5] of 710 M⁻¹ s⁻¹.

B2: LaNAL (Limosilactobacillus antri DSM 16041) (protein)
chain: MKDFSKYRGVFPAFYACYDDNGEVSPERVQQLTEYHLKKGVKGVYVNGSSGECIYLSVAERKMVLENVMKVAKGKLTVIAHVACNNTKDSVELAKHAESMGVDAIAAIPPIYFKLPDYSIAKYWNAISAAAPHTDFVIYNIPQLAGTALSASLYQQMLDNQQLIGVKNSSMPVQDIQIFKSLGGDDHLVFNGPDEQFISGRVMGAIGGIGGTYGAMPDLFLKLNSFLKAGDLKNANKLQFMINEVIYKLAGGHGNMYALIKEVLRENEDLDIGSVRLPLEPLAPEDQQLVAEAIALINKTRAAFN
notes: as for B1
For B2, the Km [5] was 1100 ± 200 µM, the kcat [5] was 5.6 ± 0.1 s⁻¹ and the kcat/Km [5] was 5100 M⁻¹ s⁻¹.

B3: LaNAL (Limosilactobacillus antri DSM 16041; P193Y) (protein)
chain: MKDFSKYRGVFPAFYACYDDNGEVSPERVQQLTEYHLKKGVKGVYVNGSSGECIYLSVAERKMVLENVMKVAKGKLTVIAHVACNNTKDSVELAKHAESMGVDAIAAIPPIYFKLPDYSIAKYWNAISAAAPHTDFVIYNIPQLAGTALSASLYQQMLDNQQLIGVKNSSMPVQDIQIFKSLGGDDHLVFNGYDEQFISGRVMGAIGGIGGTYGAMPDLFLKLNSFLKAGDLKNANKLQFMINEVIYKLAGGHGNMYALIKEVLRENEDLDIGSVRLPLEPLAPEDQQLVAEAIALINKTRAAFN
notes: as for B1
For B3, the Km [5] was 500 ± 10 µM, the kcat [5] was 0.99 ± 0.03 s⁻¹ and the kcat/Km [5] was 1980 M⁻¹ s⁻¹.

B4: LsNAL (Latilactobacillus sakei subsp. sakei 23K) (protein)
chain: MKDLTKYKGIIPAFYACYDEAGEISPERVRALTEYYIKKGVKGVYVNGSSGECIYQSVEDRKIVLENVMAVAKGKLTVIAHVACNNTKDSVELAKHAESLQVDAIAAIPPIYFKLPEYSIANYWNTISAGAPNTDFIIYNIPQLAGVSLTTELYAEMRRNPNVIGVKNSSMPVQDIQMFCAAGGKDHIVFNGPDEQFLGGRLMGAAAGIGGTYGAMPALFLKLNTLISELKLEEAKDLQYAIDEIIYKMCSGHGNMYAMIKEILRINEQLDLGSVREPLAPLNEADLEIAKESATMITTAIEKYC
notes: N-terminal His-tag (pET-28a), E. coli Rosetta 2; nanA gene 918 bp; homotetramer 140 kDa; EC 4.1.3.3
B4 was tested, and the Km [6] was 12500 ± 200 µM, the kcat [6] was 3.9 ± 0.1 s⁻¹ and the kcat/Km [6] was 310 M⁻¹ s⁻¹.
